This note sets out measurements from patent US20060067910A1, “High-molecular weight derivatives of camptothecins” (priority 2002, published 2006).

Series [1] concerns Mouse colon cancer Colon 26 tumor. As to the kind of experiment: Antitumor action, relative tumor volume after single intravenous administration. It counts as in vivo. As to conditions: with smaller administration amount; single i.v. administration. On the procedure: As an indication of toxicity, variation in body weight was also measured (Table 2).
Series [2] in a line: Variation in body weight as an indication of toxicity, Colon 26 tumor-bearing mice. In kind it is in vivo, mouse. The protocol:
Mouse colon cancer Colon 26 tumor under successive cultivation under mouse skin was cut into blocks of approximately 2 mm square, and transplanted to under mouse skin using a trochar. […] As an indication of toxicity, variation in body weight was also measured (Table 2).

As to “condensate of a block copolymer of methoxypolyethylene glycol having a molecular weight of approximately 12000 and polyglutamic acid having a polymerization number of approximately 28, with 7-ethyl-10-hydroxycamptothecin [Compound 1]”, in series [1], the “antitumor effect as compared with compound 2 (smaller drug content)” value is reported as “higher antitumor effect”. In addition, the “variation in body weight” value in series [2] (dose 22.5 mg/kg i.v. once, day 0 after administration) turned out to be 1.0; in series [2] (dose 22.5 mg/kg i.v. once, day 2 after administration) it was 0.98; in series [2] (dose 22.5 mg/kg i.v. once, day 5 after administration), 1.02; in series [2] (dose 22.5 mg/kg i.v. once, day 9 after administration), 1.06; in series [2] (dose 22.5 mg/kg i.v. once, day 12 after administration) it was 1.03; in series [2] (dose 22.5 mg/kg i.v. once, day 14 after administration) it was 0.96. The “variation in body weight” value came to 1.0 in series [2] (dose 45.0 mg/kg i.v. once, day 0 after administration); 0.94 in series [2] (dose 45.0 mg/kg i.v. once, day 2 after administration); 0.91 in series [2] (dose 45.0 mg/kg i.v. once, day 5 after administration); 0.97 in series [2] (dose 45.0 mg/kg i.v. once, day 7 after administration); 1.03 in series [2] (dose 45.0 mg/kg i.v. once, day 12 after administration); 1.04 in series [2] (dose 45.0 mg/kg i.v. once, day 14 after administration).
On to “condensate of a block copolymer of mono-methoxypolyethylene glycol having a molecular weight of approximately 12000 and polyglutamic acid having a polymerization number of approximately 7, with 7-ethyl-10-hydroxycamptothecin [Compound 2]”, for which the “variation in body weight” value in series [2] (dose 90.0 mg/kg i.v. once, day 0 after administration) came to 1.0; in series [2] (dose 90.0 mg/kg i.v. once, day 2 after administration), 0.96; in series [2] (dose 90.0 mg/kg i.v. once, day 5 after administration) it was 1.00; in series [2] (dose 90.0 mg/kg i.v. once, day 12 after administration), 0.90; in series [2] (dose 90.0 mg/kg i.v. once, day 14 after administration) it was 0.83; in series [2] (dose 180.0 mg/kg i.v. once, day 0 after administration), 1.0. Further, the “variation in body weight” value in series [2] (dose 180.0 mg/kg i.v. once, day 2 after administration) amounted to 0.91; in series [2] (dose 180.0 mg/kg i.v. once, day 5 after administration), 0.99; in series [2] (dose 180.0 mg/kg i.v. once, day 7 after administration), 0.99; in series [2] (dose 180.0 mg/kg i.v. once, day 9 after administration), 1.04; in series [2] (dose 180.0 mg/kg i.v. once, day 12 after administration), 0.94; in series [2] (dose 180.0 mg/kg i.v. once, day 14 after administration), 0.94.
